Measurements as given in the DeepSol protein solubility set.

Experiment: soluble on expression in E. coli; label from the status in PepcDB or PDB records

Sequence | soluble on expression in E. coli
AHHHHHHGSRIVVIGSGTAGSNFALFMRKLDRKAEITVIGKEETMQYSPCALPHVISGVIEKPEDVIVFPNEFYEKQRIKLLLNTEAKKIDRERKVVVTDKGEIPYDKLVIATGSKAFVPPIKGVENEGVFTLKSLEDVRKIKEFIKKRNPKNAVVIGAGLIGLEGAEAFAKLGMKVTVVELLEHLLPTMLDKDIAKIVEENMRKYGVDFKFGVGVDEIIGDPVEKVKVGEEEIDADIVLVATGVRANVELAKEAGLEVNRGIVVNEYLQTSDPDIYAIGDCAEVIDAVTGKRTLSQLGTSAVRMAKVAAENIAGRNVKFRPVFNTAITEIFDLEIGAFGITEERAKKEEIEVVVGKFRGSTKPEYYPGGKPIVVKLIFRKEDRRLIGAQIVGGERVWGRIMTLSALAQKGATVEDVVYLETAYAPPISPTIDPITIAAEMAMRKL | soluble
MSLETTHSFGDRAVFAFGKHTGKIFKYAPRVLKDQDPEDLHQLRVGVRRLRTAVIGFMPAVQLPQGITERKIGKIGQQLGVQRDNDVLQEILLHKYLPHLPTSEQGCLEKVLKRLQKERKQAFKATYKLLTHDKFTQFKQSWEIWLEHPHFTSLGGLAIADVLPDLLLPQLSQFFLHPGWLVGTEIDPDTNSSNRQRRCIDLSPTAIETLLDGEESILHDLRKEAKRTRYQMELFSDYFGEEYQQLLAQVKMTQEILGNLQDSFVLRAMVEQYLDVDLKQLCPQWSAIFHGDRLGYWDQWQPLQSQFIDPVYRHHCRQLVQNPLVNSDQPTSSNLEGHHHHHH | soluble
MIEVKPINAEDTYELRHRILRPNQPIEACMFESDLLRGAFHLGGYYGGKLISIASFHQAEHSELQGQKQYQLRGMATLEGYREQKAGSSLIKHAEEILRKRGADLLWCNARTSASGYYKKLGFSEQGEVFDTPPVGPHILMYKRIT | soluble
MGSDKIHHHHHHMETVQYDYKQILQRIVAEIKSSRIQVARKITSATMELYWNIGKELSAQHLSKGYGAQVVEMLASDLQKEFPGTTGFSSRNLWEMKRFYERYCGESRKLQQSVAVLPWGHNLLLMSKCKNPEEIYFYATRSTELGWTRDVLLNYIKADAFSTREEQPKLHNFKETLPECLQEQAEEMLKSRYNLEFLGITKPILELELERRLVDKIKTFLLEMGKGFSFIGNQYRLVLEDKEYFVDMLFFNRCTRSLIALELKIGSFQPEYVGKMNFYLNLLDRQVKMPDENPSIGIILCADRNNVEVEVALQGSTAPIGVSEYSYLIPQKQIKELINNELSGNKE | not soluble
RTMGFYVAKGNPKNITGWEDFRRDDLTMVNRERGCGTRILLDEHLRLLNIDGNKINGYSRESLSHLAIASIISRNGADIGIGNEKTGLQVANIDFIPIQRERYDLVIRKDDIEKPPFKAIIDILQSETFKSELMGIGGYDLTQTG | not soluble
MTNRQWETLREYDEIKYEFYEGIAKVTINRPEVRNAFTPKTVAEMIDAFSRARDDQNVSVIVLTGEGDLAFCSGGDQKKRGHGGYVGEDQIPRLNVLDLQRLIRIIPKPVIAMVKGYAVGGGNVLNVVCDLTIAADNAIFGQTGPKVGSFDAGYGSGYLARIVGHKKAREIWYLCRQYNAQEALDMGLVNTVVPLEKVEDETVQWCKEIMKHSPTALRFLKAAMNADTDGLAGLQQMAGDATLLYYTTDEAKEGRDAFKEKRDPDFDQFPKFP | soluble
MHIYRYEENPLITPEDVPPHHDGFEVIGAFNAGVARFQGEVLLLLRVAERPVSDDPNIVKAPVWNPKTGKVDVYEFRKDDPRYDFSDPRVIREAGAERFAYLTSLSYLRLARSQDGRRFVIDDRPFVYPSNELETFGIEDPRITYIDGTYYIYFSAVSPKGVGEAMVSTTDFRTVTHHGMIFAPENKDVLIFPEKINGKYYALHRPVPRSNGRPEVWIAESENLLHWGNHRFLFGLREGKWDSARIGGGAVPIKTEYGWLELYHGASDDHRYCMGAVLLDLNDPAKVIARSERPLVEPEADYEVNGFFGRVVFSCGALVDGDIVKMYYGAADTSMACVELKLDEILDSLVKV | soluble
NLKDVEHVVILMQENRSFDHYFGTLKGVRGFGDRMAIPLPDGQRVWHQKGSKGEILPYHFDTSTTSAQRVDGTPHTWPDAQQAWNEGRMDKWLPAKTERSLGYYKEQDIAFQFAMANAFTICDAYHCSFQGGTNPNRLFLWTGTNDPLGQHGGPVTTNDHDSNGPVEQGYTWTTYPERLQAAGITWRVYQDMADNFSDNPLIGFRQYRAAAPDSPLIVNGLSTWKLDALKRDVLANSLPQVSWIVAPAKYSEHPGPSSPIWGAEYTSWVLDALTANPEVWSKTALLVMFDENDGFFDHVAPPAAPSLNKDGTLRGKTTADATLEWHTKGDIRYRNQPYGLGPRVPMYVISPWSKGGWVNSQVFDHTSVIRFLEQRFGVMEPNISPWRRAVCGDLTSAFNFANPNNEPFPELPDTSQADAIVASQIKLPKPKPPAVAAMPKQEMGIRPARALPYELGVHARYRSGGDALSLTFANTGKAGAVFQVFDLLDSENPPKRYTVGARKRLHDSFQGDASGDYHLEVHGPNGFLRVFRGNLRRDLAERKAPLPEVRIDYEPLFGNLRVQLINRGRHPVKLTVKDNVYRQGERRTVNVPPGQRREVRYSLRSSGNWYDFSVSAQGADSFLRRFSGRMEDGRSGFSDPGMGLGTLTF | not soluble
MGSSHHHHHHGKTIFVIVPTNEEQVAFLEALAKQDELNFDWQNPPTEPGQPVVILIPSDMVEWFLEMLKAKGIPFTVYVEEGGSENLYFQGGGGGGMDLDAFLSKNNKKSSKKVAKKSADEAALGGFGLETVPRVSTAAAKPITVANTGGSDASAAAGTASPLPAPEKTVAAPVVAVNLNFAGTTRSAKTWDAVKASQDSKRQEEVQAAAARKAKEEAEAAERKAAAGGDDDEVQLPESSPKETKVAKFVARGHRNATGAIGGGEGGAAAAASGRFAPHTQGLSLENLPTLEETFGNARKPSQSTASQSQSQQQPMSLPSQEQNGESAPAATPQESSSTPTSATAVAGSNKYVPPSKSSSTMESSTTLPSSPMPTRGSAGGSSAAAYRPPSGSSGVYKPPSMGAYRPPNASAGEAYKPPAPSAPSSGAGAYKPPTPGGASAGAYRPPASTGEAYKPPSSGGAGVYKPPSAGNSNAGAFKPSTAAGFSADTYKPPVAGSGSSAGAYKPPSAGGSAGVYKPPSKREA | soluble
MGSSTSTPAPPPKKNKPEGRKADNQILNSYQKSIVRNAWRHMSQKGPSNCGSTITRRMMARKSTIGDILDRSTLDYHNLQIVEFLQKVMQSLDEPDKISKLCQEIGQKHAKYRRSKGMKIDYWDKLGEAITETIREYQGWKIHRESLRAATVLVSYVVDQLRFGYSRGLHVQGSRETKEDDEE | not soluble
MLRRDFLKLLAAATTIAATGPVMAACSRDDNSATSGKAATDTIRIAAIGGPGEGLNINEAMSTATWAAMYAVYESLVIAGDSAPAFQLAKSVEPNKDATMWTVTLRDAPLFSDGSPVTAADVVASLKVVAKNPMRGMTYADVDVDKLKAIDDSTVEIHLTRPRADFVDAVLGVNSLVYKNGDPGTTIGSGPYVVESGDSGQGWKLAANEHFPTDRRISQSLEIQVIADADARLRAVDSGAVDLAMDLPATAARSLKNAQAWIPGPADSKALLFVLNTAVAPFNDAEVRRAVKISLDRKAMVDVALDGAGTVGADIPGFGFKDYPEGISEVRRDLDAARQIFKDKGIKELTLVTADFTPGMNDGADIAAKQLADAGVKVTVEKRDPTTYFADMAALRALPFFASYIVNRSLQSALPFMTGSHAMFNLSGFGTSGDWDKRLAAAQAETNDSQRAALLKKLAVEMQRDGGDVLWGYANEVHGRADGIPDVPVSQSVPVPTTK | not soluble
MAHHHHHHMTRPRLTSAPRGSALKEAISAHQALRNAVAQEQSALDDELKKNEQILAEHEQLMRDWSCDKEGVLATIQKMKEKIAENESKTTEARAEVKQNEEIVKRLHARNEEYEPRLEASAIEIAERLKKREEEEKEMREQLLTFQIACQEREQQYRDQIHKLEETNAQEAVDHQQKVQQLRSKIAEVEATMEEERRAWVVETEMRKQQRLIERHKFFTEEAEEARKGKEACAAIMKEASALRMDSNLLTSLDDLLCC | not soluble
MSLKTLSDDLYKQFSNFLAVQSGIVLGDNKQYLVKSRLSPLMTQFGIESLSDLVTRAMSVRERDLKMAVVDAMTTNETLWFRDTYPFQLLTDKIFPELGKSGRPIKIWSAASSSGQEPYSIAMTALEQQVKKPGTLPGGVQIVGTDISSTMLNQCKEGVYDSLALARGLSPERKKLFFEPYGDNKMRVVERVRKLTTFRPLNLLESYSLLGKFDIIFCRNVLIYFAPEVKSKILNQFAASLNPGGYLMLGASESLAGLTDRFEMIRCNPGIVYKVKEGHHHHHH | soluble
MVSGGTFNAGVEKIRPGIYTNFKAAAAERTKAGERGTVALPLAASWGAAKEFVEINKEEDVEKKLGLSLAHQSFLLLRETLKLAKTVLVYRLNDGIKATATLATDVVVTAKYGGIVGNSITIKVDENVVDSSKKDVTTYLNEVAVDKQVVGTASELIDSNYVSFKTTSTSELQQSSGTTLVGGTDQPVTNLDYTQFLVSAEGEYFDTIAFPVSSSDVALKTSFVSFVKRMRDEQGVKIKGVVANMPADYEGIINVRNGVTLRDGTILEPHQVVAWVAGADASASMLKSNTFVKYDGAIDATPRLANDEAEEALQNGEFVLTFDARDKAVYVEQDLNSLTTFSKEKSSKFRKNKISRILDGINNDTRRNILDAIKERKDANTDIPADENGVQFILSMQTAYLNELQDSGAITNFDSTADITVSLNNNVDGFIVNQSIEPVDSGEKFYFTTEVKLEHHHHHH | soluble
MGSDKIHHHHHHMNTTNQTAPQGFRLNALGHAVPESQIKEIDKLRDELVLQIVTAAKEMQGHMATYKATSMRAVADFIDLSASEFGVKFGGTKGNVSLVSFDGKYKVQRSIGEHRVFDERIQAAKSKIDDCIKRWSVGSNDHIKALVELSFKVNKQGYIDINQVLSLRQLDIDDTDWRSAMDAIADSIQVMGSTPYLRVYERQDDGTYKQISLDIAKL | not soluble
MSEAETGEPNGFRSCYDKLRKAVGNIPMDASKSTKLHNLSSRKISEILPNLYLSGRTVSQNSELLKEKNITTVINVSDREVVNYKNNQKFIKNYRFYAMSDTASAKFDGIIEEAVRIIHDSRSKEEGVLVHCFLGVSRSATLVAFYLISALSINWRDAVDFIHHRRFSANPNFGFLHQLKVYSTTKAKEFRNQLISERCLRMRESDKDIIKKYLPLAVFEL | not soluble
MQPLKRIRHPSGSEILFDAKWHQYKLGGTALRSVSKLLDRFFPFDEKRVLELVSKKTGQPVDKIKQGWSRQALLGKNVHEFIECKLLKKPPPTFTLLMKRKQAREAARPADATGPAAITTTPLEDEVLHGEEALYLPVAEMAVEKVLSTYDVLGAEQVIAAPGWGIAGTIDFMGRNRRTNRVLIGDWKTTGSVTSNFRFGSFETACPGALRHLPNSKMYRYAMQVTIYGEILAREQYFEKQFFDAQLRASLTASLAVPSTDVTPPAPPAKTRGRPSSRAAAPAKSDIGSDVESLLKTFYRNNTEQRFEYGIVQLAKGEDGGVVAEFKEVTPETVMPPDCPEMTFDSLLQRVMEGVGV | soluble
SPSCSPQQASKAEENGSNSFMHSMVPQLEWQMETTQSLVDSYVAIVNKTVWDLMVGLTPKTIMHLMINNNKEFIFSELLANLYLHGDKNMLMEESAEQAQRS | soluble
MKYLPQQDPQVFAAIEQERKRQHAKIELIASENFVSRAVMEAQGSVLTNKYAQGYPGRRYYGGCEYVDIVEELARERAKQLFGAEHANVQPHSGAQANMAVYFTVLEHGDTVLGMNLSHGGHLTHGSPVNFSGVQYNFVAYGVDPETHVIDYDDVREKARLHRPKLIVAAASAYPRIIDFAKFREIADEVGAYLMVDMAHIAGLVAAGLHPNPVPYAHFVTTTTHKTLRGPRGGMILCQEQFAKQIDKAIFPGIQGGPLMHVIAAKAVAFGEALQDDFKAYAKRVVDNAKRLASALQNEGFTLVSGGTDNHLLLVDLRPQQLTGKTAEKVLDEVGITVNKNTIPYDPESPFVTSGIRIGTAAVTTRGFGLEEMDEIAAIIGLVLKNVGSEQALEEARQRVAALTDGG | soluble
